Molecular target: T1, His6UL36^USP (Human herpesvirus 1, UniProt P10220)
T1 construct: amino acids 1 to 533 of the UL36 gene product from HHV HSV1; 6-His (pET-28a(+)) (N); 6-His (pET-28a(+)) (C); made in house; host or cells: E. coli BL21 or BL21 RIPL
Experiment: Cleavage of Ub-AMC by recombinant UL36^USP
Format: biochemical, HSV-1
Conditions: ~0.1 pmol enzyme, Ub-AMC, 25° C.
Description: Recombinant UL36^USP and UL36^USP/C65A (˜0.1 pmol) were incubated in 125 μl kinetics buffer (50 mM HEPES, pH 7.5, 0.5 mM EDTA) supplemented with 1 mM DTT at room temperature for 10 minutes. To this was added 75 μl of Ub-AMC (250 nM in kinetics buffer) and AMC liberation was measured at 25° C. For inhibition experiments, one of UbVME, SUMO-VME, ISG15-VS, or Nedd8-VS (10 pmol) was incubated with recombinant UL36^USP (˜0.1 pmol) for 30 minutes at room temperature. To this was added 75 μl of Ub-AMC (250 nM in kinetics buffer) and AMC liberation was measured. Cleavage experiments were performed in triplicate. All fluorescence measurements were made using a Wallac Victor^3 1420 fluorescence/luminescence plate reader (Perkin Elmer) using 380 nm excitation and 460 nm emission wavelengths, with 5 second intervals between measurements. Data were exported as an Excel file and plotted as mean values of replicate experiments using Kaleidagraph v3.6 (Synergy Software).
In a typical eukaryotic cell, the presence of multiple DUBs, whose substrate pool and catalytic activities may overlap, confounds straightforward analysis of the activity of any one particular DUB. […] The proteins were expressed, purified over Ni-NTA resin and evaluated for their ability to cleave Ub C-terminal 7-amido-4-methylcoumarin (Ub-AMC) (Dang et al., 1998). […]

B1: His6UL36^USP: His-tagged recombinant 533 N-terminal amino acids of HSV-1 UL36, ubiquitin-specific cysteine protease (protein)
chain: MGGGNNTNPGGPVHKQAGSLASRAHMIAGTPPHSTMERGGDRDIVVTGARNQFAPDLEPGGSVSCMRSSLSFLSLIFDVGPRDVLSAEAIEGCLVEGGEWTRATAGPGPPRMCSIVELPNFLEYPGARGGLRCVFSRVYGEVGFFGEPAAGLLETQCPAHTFFAGPWALRPLSYTLLTIGPLGMGLFRDGDTAYLFDPHGLPEGTPAFIAKVRAGDMYPYLTYYTRDRPDVRWAGAMVFFVPSGPEPAAPADLTAAALHLYGASETYLQDEAFSERRVAITHPLRGEIAGLGEPCVGVGPREGVGGPGPHPPTAAQSPPPTRARRDDRASETSRGTAGPSAKPEAKRPNRAPDDVWAVALKGTPPTDPPSADPPSADPPSAIPPPPPSAPKTPAAEAAEEDDDDMRVLEMGVVPVGRHRARYSAGLPKRRRPTWTPPSSVEDLTSGEKTKRSAPPAKTKKKSTPKGKTPVGAAVPASVPEPVLASAPPDPAGPPVAEAGEDDGPTVPASSQALEALKTRRSPEPPGADLAQLF
modifications: left off: small tags and cut ends
notes: His-tagged recombinant 533 N-terminal amino acids of HSV-1 UL36, ubiquitin-specific cysteine protease
  Turnover number for Ub-AMC cleavage: ~6 min⁻¹

From patent US20070092942A1, “Ubiquitin specific enzymes of family herpesviridae” (priority 2005, published 2007)
